Results: US9969998B2, “Compositions of adenosine deaminase-2 (ADA2), variants thereof and methods of using same” (Halozyme, Inc., priority 2014, dated 2018)

Assays:
[1] = Kinetic assessment of adenosine deaminase activity (ammonia assay, Michaelis-Menten); type: biochemical
Experimental: Adenosine deaminase activity was determined by the measurement of ammonia released from adenosine when broken down to inosine. Ammonia was measured using a commercially available Ammonia Assay kit (Cat. No. AA0100, Sigma-Aldrich, St. Louis, Mo.). The kit contains dry reagents containing α-ketoglutaric acid and NADPH, which were reconstituted with 5 mL water prior to use in the assay. Ammonia reacts with α-ketogluaric acid (KGA) and reduced nicotinamide adenine dinucleotide phosphate (NADPH) in the presence of L-glutamate dehydrogenase (GDH).
Kinetics parameters of rHuADA2 WT and variants were compared using this assay at different adenosine concentrations at pH 7.6 and 6.5. Adenosine concentrations ranging from 20 μM to 20 mM were used. Sub-molar concentration of adenosine stock was prepared in 1N NaOH.
For the enzymatic assays at pH 7.6, adenosine was serially diluted with 100 mM sodium acetate (NaOAc), pH 4.9. A 2× reaction mixture was prepared, containing reconstituted ammonia assay reagent (containing about 4 mM α-ketoglutarate and about 300 μM NADPH), WT rHuADA2 or variants at 1 μg/mL (17 nM) and glutamate dehydrogenase (GDH, 1:50 dilution). 85 μL of adenosine was added to 85 μL 2× mixture in duplicate in a UV-transparent half-area plate. The change in absorbance (ΔA) at 340 nm over time at room temperature was monitored.
For the enzymatic assay at pH 6.5, adenosine was serially diluted with 200 mM piperazine-N,N′-bis(2-ethanesulfonic acid) (PIPES), pH 6.5. A 2× reaction mixture in 200 mM PIPES, pH 6.5 was prepared, containing 4 mM α-ketoglutarate, 300 μM NADPH, 1 μg/mL (17 nM) rHuADA2 or variants and 50 U/mL GDH (Cat No. G2626, Sigma-Aldrich). The enzymatic reaction was initiated by adding equal volume of adenosine to the 2× mixture in a UV-transparent half-area plate as described above, and the change in absorbance (AA) at 340 nm over time at room temperature was monitored.
Adenosine deaminase activity in mU/mL (μM/min equivalent) was calculated using the following formula: 1 mU/mL=−(−ΔA/min×Tv)/(Sv×ϵ×1) • where Tv=total volume (170 μL), Sv=sample volume (85 μL), ϵ=6.22×10^−3 μM^−1 cm^−1, 1=1 cm.
The activity data were fitted with non-linear regression of Michaelis-Menten equation using Graphpad Prism software to obtain Km and Vmax. Other kinetics parameters such as kcat and kcat/Km were also determined.

[2] = Adenosine deaminase (ADA) enzymatic activity assay kit; type: biochemical; details: purified protein at 5 μg/mL
Experimental: Adenosine deaminase activity was determined using an adenosine deaminase (ADA) assay kit (Genway, San Diego, Calif.; Cat. No. BQ014EALD) with minor modifications. The ADA assay is based on the enzymatic deamination of adenosine to inosine, which is converted to hypoxanthine by purine nucleoside phosphorylase (PNP). Hypoxanthine is then converted to uric acid and hydrogen peroxide by xanthine oxidase (XOD). Hydrogen peroxide is further reacted with N-Ethyl-N-(2-hydroxy-3-sulfopropyl)-3-methylaniline (EHSPT) and 4-aminoantipyrine (4-AA) in the presence of peroxidase (POD) to generate quinone dye, which is monitored in a kinetic manner.
Briefly, 5 μL samples in duplicates (at appropriate dilutions to measure steady-state, non-saturating enzyme activity) were added to 120 μL R1 reagent (provided by the manufacturer; 50 mM Tris HCL, pH 8.0, 2 mM 4-AA, 0.1 U/mL PNP, 0.2 U/mL XOD, 0.6 U/mL peroxidase) in a 96 well plate, according to manufacturer's instructions. The mixtures were incubated at 37° C. for approximately 5 min and 60 μL of R2 reagent (provided by the manufacturer; 50 mM Tris HCl, pH 4.0, 10 mM Adenosine, 2 mM EHSPT) was added to the mixtures. Then, change in absorbance (AA) at 556 nm over time at 37° C. was measured. One unit of ADA is the amount of ADA that generates one μmole of inosine from adenosine per minute at 37° C. Adenosine deaminase activity in mU/mL was calculated using the following formula: 1 mU/mL=(ΔA/min×Tv)/(Sv×ϵ×1) • where Tv=total volume (185 μL), Sv=sample volume (5 μL), ϵ=32.2×10^−3 μM^−1 cm^−1, 1=0.5 cm.
Adenosine deaminase activity of WT rHuADA2 and variants tested above were determined using the adenosine deaminase activity (ADA) assay described in Example 4. Activity was assessed on purified rHuADA2 WT and variants that were diluted to 5 μg/mL, and then serially diluted 2 fold to generate 4 measurements.
Adenosine deaminase activity of PEGylated rHuADA2 and variants was assessed using the method described in Example 4, and compared to the activity of the corresponding non-PEGylated form.
Selected candidate variants described in Table 8 above, containing an amino acid substitution in a residue that play a role in enzymatic activity, were assessed for their adenosine deaminase activity using the method described in Example 4. To perform the experiments, purified WT rHuADA2 and tested variants were prepared at 5 μg/mL concentration to normalize the amount of protein in each experiment.

% of WT activity ([2]; compared to WT-ADA2) [%] | Molecule | Km ([1]; pH 7.6, [E] = 8.5 nM) [µM] | Vmax ([1]; pH 7.6, [E] = 8.5 nM) [µM/min] | kcat ([1]; pH 7.6, [E] = 8.5 nM) [s⁻¹] | Adenosine deaminase activity mU/ml [2] [mU/ml] | Adenosine deaminase activity ΔA/min [2] | Km ([1]; pH 6.5) [µM] | Km ([1]; pH 6.5, [E] = 8.5 nM) [µM] | Vmax ([1]; pH 6.5, [E] = 8.5 nM) [µM/min] | kcat ([1]; pH 6.5, [E] = 8.5 nM, kcat=Vmax/0.0085/60) [s⁻¹] | Km ([1]; pH 7.6) [µM] | kcat ([1]; pH 7.6, [E] = 8.5 nM, kcat=Vmax/0.0085/60) [s⁻¹]
 | K374D/C108-T150del→(GGGGS)1 (protein, C108-T150 replaced by GGGGS linker; human ADA2 K371D/C105-T147del->(GGGGS)1, mature numbering) IDETRAHLLLKEKMMRLGGRLVLNTKEELANERLMTLKIAEMKEAMRTLIFPPSMHFFQAKHLIERSQVFNILRMMPKGAALHLHDIGIVTMDWLVRNVTYRPHGGGGSEFDDSLLRNFTLVTQHPEVIYTNQNVVWSKFETIFFTISGLIHYAPVFRDYVFRSMQEFYEDNVLYMEIRARLLPVYELSGEHHDEEWSVKTYQEVAQKFVETHPEFIGIKIIYSDHRSKDVAVIAESIRMAMGLRIKFPTVVAGFDLVGHEDTGHSLHDYKEALMIPAKDGVKLPYFFHAGETDWQGTSIDRNILDALMLNTTRIGHGFALSKHPAVRTYSWDKDIPIEVCPISNQVLKLVSDLRNHPVATLMATGHPMVISSDDPAMFGAKGLSYDFYEVFMGIGGMKADLRTLKQLAMNSIKYSTLLESEKNTFMEIWKKRWDKFIADVATK | 910 | 43.1 | 84.51 |  |  |  |  |  |  |  | 
 | K374D/C108-T150del→(GGGGS)2 (protein, C108-T150 replaced by (GGGGS)2; human ADA2 K371D/C105-T147del->(GGGGS)2, mature numbering) IDETRAHLLLKEKMMRLGGRLVLNTKEELANERLMTLKIAEMKEAMRTLIFPPSMHFFQAKHLIERSQVFNILRMMPKGAALHLHDIGIVTMDWLVRNVTYRPHGGGGSGGGGSEFDDSLLRNFTLVTQHPEVIYTNQNVVWSKFETIFFTISGLIHYAPVFRDYVFRSMQEFYEDNVLYMEIRARLLPVYELSGEHHDEEWSVKTYQEVAQKFVETHPEFIGIKIIYSDHRSKDVAVIAESIRMAMGLRIKFPTVVAGFDLVGHEDTGHSLHDYKEALMIPAKDGVKLPYFFHAGETDWQGTSIDRNILDALMLNTTRIGHGFALSKHPAVRTYSWDKDIPIEVCPISNQVLKLVSDLRNHPVATLMATGHPMVISSDDPAMFGAKGLSYDFYEVFMGIGGMKADLRTLKQLAMNSIKYSTLLESEKNTFMEIWKKRWDKFIADVATK | 850 | 36.92 | 72.39 |  |  |  |  |  |  |  | 
 | K374D/V102-Q147del→(GGGGS)2 (protein, V102-Q147 replaced by (GGGGS)2; human ADA2 K371D/V99-Q144del->(GGGGS)2, mature numbering) IDETRAHLLLKEKMMRLGGRLVLNTKEELANERLMTLKIAEMKEAMRTLIFPPSMHFFQAKHLIERSQVFNILRMMPKGAALHLHDIGIVTMDWLVRNGGGGSGGGGSNVTEFDDSLLRNFTLVTQHPEVIYTNQNVVWSKFETIFFTISGLIHYAPVFRDYVFRSMQEFYEDNVLYMEIRARLLPVYELSGEHHDEEWSVKTYQEVAQKFVETHPEFIGIKIIYSDHRSKDVAVIAESIRMAMGLRIKFPTVVAGFDLVGHEDTGHSLHDYKEALMIPAKDGVKLPYFFHAGETDWQGTSIDRNILDALMLNTTRIGHGFALSKHPAVRTYSWDKDIPIEVCPISNQVLKLVSDLRNHPVATLMATGHPMVISSDDPAMFGAKGLSYDFYEVFMGIGGMKADLRTLKQLAMNSIKYSTLLESEKNTFMEIWKKRWDKFIADVATK | 870 | 44.52 | 87.29 |  |  |  |  |  |  |  | 
170 | R222Q: ADA2 variant SEQ ID NO:39 (protein, human ADA2 R219Q, mature numbering) IDETRAHLLLKEKMMRLGGRLVLNTKEELANERLMTLKIAEMKEAMRTLIFPPSMHFFQAKHLIERSQVFNILRMMPKGAALHLHDIGIVTMDWLVRNVTYRPHCHICFTPRGIMQFRFAHPTPRPSEKCSKWILLEDYRKRVQNVTEFDDSLLRNFTLVTQHPEVIYTNQNVVWSKFETIFFTISGLIHYAPVFRDYVFRSMQEFYEDNVLYMEIRAQLLPVYELSGEHHDEEWSVKTYQEVAQKFVETHPEFIGIKIIYSDHRSKDVAVIAESIRMAMGLRIKFPTVVAGFDLVGHEDTGHSLHDYKEALMIPAKDGVKLPYFFHAGETDWQGTSIDRNILDALMLNTTRIGHGFALSKHPAVRTYSWKKDIPIEVCPISNQVLKLVSDLRNHPVATLMATGHPMVISSDDPAMFGAKGLSYDFYEVFMGIGGMKADLRTLKQLAMNSIKYSTLLESEKNTFMEIWKKRWDKFIADVATK | 1920 | 59.28 |  | 132.9 | 57.8 ΔA/min | 994 | 994 | 42.15 | 82.65 | 1920 | 116.24
 | K374D/V102-Q147del→(GGGGS)1 (protein, V102-Q147 replaced by (GGGGS)1; human ADA2 K371D/V99-Q144del->(GGGGS)1, mature numbering) IDETRAHLLLKEKMMRLGGRLVLNTKEELANERLMTLKIAEMKEAMRTLIFPPSMHFFQAKHLIERSQVFNILRMMPKGAALHLHDIGIVTMDWLVRNGGGGSNVTEFDDSLLRNFTLVTQHPEVIYTNQNVVWSKFETIFFTISGLIHYAPVFRDYVFRSMQEFYEDNVLYMEIRARLLPVYELSGEHHDEEWSVKTYQEVAQKFVETHPEFIGIKIIYSDHRSKDVAVIAESIRMAMGLRIKFPTVVAGFDLVGHEDTGHSLHDYKEALMIPAKDGVKLPYFFHAGETDWQGTSIDRNILDALMLNTTRIGHGFALSKHPAVRTYSWDKDIPIEVCPISNQVLKLVSDLRNHPVATLMATGHPMVISSDDPAMFGAKGLSYDFYEVFMGIGGMKADLRTLKQLAMNSIKYSTLLESEKNTFMEIWKKRWDKFIADVATK | 890 | 43.46 | 85.22 |  |  |  |  |  |  |  | 
 | K374D/C108-T150del→(GGGGS)3 (protein, C108-T150 replaced by (GGGGS)3; human ADA2 K371D/C105-T147del->(GGGGS)3, mature numbering) IDETRAHLLLKEKMMRLGGRLVLNTKEELANERLMTLKIAEMKEAMRTLIFPPSMHFFQAKHLIERSQVFNILRMMPKGAALHLHDIGIVTMDWLVRNVTYRPHGGGGSGGGGSGGGGSEFDDSLLRNFTLVTQHPEVIYTNQNVVWSKFETIFFTISGLIHYAPVFRDYVFRSMQEFYEDNVLYMEIRARLLPVYELSGEHHDEEWSVKTYQEVAQKFVETHPEFIGIKIIYSDHRSKDVAVIAESIRMAMGLRIKFPTVVAGFDLVGHEDTGHSLHDYKEALMIPAKDGVKLPYFFHAGETDWQGTSIDRNILDALMLNTTRIGHGFALSKHPAVRTYSWDKDIPIEVCPISNQVLKLVSDLRNHPVATLMATGHPMVISSDDPAMFGAKGLSYDFYEVFMGIGGMKADLRTLKQLAMNSIKYSTLLESEKNTFMEIWKKRWDKFIADVATK | 770 | 38.12 | 74.75 |  |  |  |  |  |  |  | 
